Measured values as given in patent publication US20190284266A1 (H LUNDBECK A S, published 2019).

Biological target: T1, hyperphosphorylated (pathological) tau from human Alzheimer's disease brain, phosphorylated at serine 396 (human, UniProt P10636 2-758, phosphoserine at 396; hyperphosphorylated at further sites that are not listed)
T1 construct: Brain-derived material (sections, S1, S1p and sarkosyl-insoluble P3 fractions, PBS extracts), a mixture of isoforms and aggregates; also called AD-P3; AD-P3 antigens
Assay: binding of pathological versus non-pathological tau, brain material (Table 5)

T1 sequence (P10636 other isoform, or with tags, fused parts or gaps limits assumed): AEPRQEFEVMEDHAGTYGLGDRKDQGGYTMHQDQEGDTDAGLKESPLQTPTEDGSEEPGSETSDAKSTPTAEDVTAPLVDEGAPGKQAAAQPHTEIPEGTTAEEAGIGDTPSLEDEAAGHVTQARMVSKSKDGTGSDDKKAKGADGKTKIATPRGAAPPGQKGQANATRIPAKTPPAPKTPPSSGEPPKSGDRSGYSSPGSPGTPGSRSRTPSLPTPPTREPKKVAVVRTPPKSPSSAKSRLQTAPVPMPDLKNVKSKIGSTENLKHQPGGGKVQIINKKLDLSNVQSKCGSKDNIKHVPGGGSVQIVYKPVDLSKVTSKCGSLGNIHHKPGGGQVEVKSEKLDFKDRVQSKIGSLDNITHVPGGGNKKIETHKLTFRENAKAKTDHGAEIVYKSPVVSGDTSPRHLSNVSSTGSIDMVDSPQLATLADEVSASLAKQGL

AD/ctrl (ratio of binding to AD brain tau over control brain tau) [fold]	Binder
3	HJ8.5 (antibody, V domains shown) VH: EVKVEESGGGLVQPGGSMKLSCVVSGFTFSNYWVNWVRQSPEKGLEWVAQIRLKSDNYATHYEESVKGRFTISRDDSKSSVYLQMNNLRAEDSGIYYCTNWEDYWGQGTTLTVSS VL: DIVLTQSPASLAVSLGQRATISCRASQSVSTSRYSYIHWYQQKPGQPPKLLIKYASNLESGVPARFSGSGSGTDFTLNIHPLEEEDAATYYCHHSWEIPLTFGAGTKLELK
3	IPN002 (antibody, V domains shown) VH: EVHLVESGGALVKPGGSLKLSCAASGFSFSKYGMSWVRQTPDKRLEWVATISSSGSRTYYPDSVKGQFTISRDNAKNTLYLQMSSLKSEDTAMYYCSISWDGAMDYWGQGTSVTVSS VL: DVLMTQTPLSLPVSLGDQASISCKSSQSIVHSNGNTYLEWYLQKPGQSPKLLVYKVSNRFSGVPDRFSGSGSGTDFTLKISRVEAEDLGTYYCFQGSLVPWAFGGGTKLEIK
